Assay results from paper PMC12428095.

What was measured:
Settings in all cases: EMSA: 20 nM probe, 10 mM Tris-HCl pH 7.5, 50 mM KCl, 10 mM MgCl2, 5% glycerol, 20 min at 4 C, 5% native PAGE in TGE pH 8.3; footprinting: same binding system …
[1] = system: T1, CopR1 (Pseudomonas putida KT2440), ORF:c26c307e; experiment: EMSA
T1 sequence: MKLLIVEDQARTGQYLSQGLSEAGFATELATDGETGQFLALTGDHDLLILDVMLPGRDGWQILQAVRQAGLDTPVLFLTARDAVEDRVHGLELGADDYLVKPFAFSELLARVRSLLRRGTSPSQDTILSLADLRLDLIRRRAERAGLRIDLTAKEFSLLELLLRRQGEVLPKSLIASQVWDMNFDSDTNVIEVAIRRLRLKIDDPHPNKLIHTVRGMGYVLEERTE

[2] = system: T2, CopR2 (Pseudomonas putida KT2440), ORF:6041cc23; experiment: EMSA
T2 sequence: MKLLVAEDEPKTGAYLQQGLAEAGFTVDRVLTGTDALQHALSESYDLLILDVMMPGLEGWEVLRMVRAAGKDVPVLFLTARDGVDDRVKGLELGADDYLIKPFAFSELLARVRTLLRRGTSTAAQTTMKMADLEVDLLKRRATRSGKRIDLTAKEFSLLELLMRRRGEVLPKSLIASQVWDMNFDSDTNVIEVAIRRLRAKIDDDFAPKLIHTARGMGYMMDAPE

[3] = system: T1, CopR1 (Pseudomonas putida KT2440), ORF:c26c307e; experiment: DNase I footprinting
[4] = system: T2, CopR2 (Pseudomonas putida KT2440), ORF:6041cc23; experiment: DNase I footprinting

Measured: binding

TGTAAAACGACGGCCAGTGGGTGGCGGTAATGAACAGGTGTTTCATGATGACTCCGGGAATACACAGCAGGATGAGGCCACATTAGCCGGGGGCGACTGGCAGCTACCTGACAGGCACATTACAACTTTGTCAGCTTGGGCGAGCGGGCACATCGTCACGTATCATTTCAGCCATCCCATTGCCCCTGTGCTAGCGGTAAGGCGGCGCCATAGGCTACGCACAATCTTTCAGAATATGGACAGCGCATGAAACTGCTGATCGTCGAAGACCAGGC (double strand) [copR1 (copRS1) promoter probe]
binds: [1] | [2] | [3] | [4]

TCGGTTCATCCTCAGCTACGAGTAGTTTCATGTGCTCAGCTTCCAAAGGTGTACACATCCAGTGTGCAGCAAAAAAAGGAGCTAACCAGAAGCTGACGTAAAAGTAATGTTGGTATCAGCCAGCTGTCAGGGCCTGCCGTCTACGGTCATTGAAGACGGGCATTGCAGTCACGCCTGCCGTTATCGGTAGCAATGGTTTCAACCCCCTGATGGAGAGAGTCCCATGAAATCGATCAGACTTTTGCTTGTGGCTACATCGATGCTGCTGACTGGCCGTCGTTTTACA (double strand) [copR2 (copRS2) promoter probe]
binds: [1] | [2] | [3] | [4]

CTTTGACAAACGTACGGCGGGAGGGGTTGCGCAACATGGCGAGGCCTCATGCGGAATAGCCACGATGTTCGCTGCCGCCTGCTGTCAGGTAGCTGAGGTGCACATTACAGTGTTGTCAGCTTGCTGCTTCGTCGATGCGCAGGTCGCGCATCAGCAGGCCGTAGTCGAGGGCAACCTGTTCCGGGATCGGCAGATACACCACATGGCCATCGCCCGGTGCGACCTCGATGGCGTGCTGCTACTGGCCGTCGTTTTACA (double strand) [copA1 (copAB1) promoter probe]
binds: [1] | [2] | [3] | [4]

TGTAAAACGACGGCCAGTAGCCAGAGCCATAAACACGGGCAGCATGAGAACTGCTGATCCGAGCTTACAGAAATGTAATCACTCGGGAATCTTTTATGTGGCAGTTTCAAATCGCTTTCTCCCACTGTGACTTGCGCTTTCGAGCAAGTCCCTAAGACTTGTGGGATCCCCAAGGAAGCCGGGCCTGCGATCGAGCGGCCCGGATATCAGCGAATTATCTGACTGACTGGACACTACGGCATGCAAAGCAAAACCACGAGACGATCTTTCGTCAAAGGCCTGGC (double strand) [copA2 (copAB2) promoter probe]
binds: [1] | [2] | [3] | [4]
